Test results taken from article PMC3352945.

Columns and labels:
imported cpTatC = experiment: radioligand binding
[1] = biological target: cpTatC (pea (endogenous in pea thylakoids)); experiment: pull-down

tOE17-GS3-His, sequence (Q41048 whole entry): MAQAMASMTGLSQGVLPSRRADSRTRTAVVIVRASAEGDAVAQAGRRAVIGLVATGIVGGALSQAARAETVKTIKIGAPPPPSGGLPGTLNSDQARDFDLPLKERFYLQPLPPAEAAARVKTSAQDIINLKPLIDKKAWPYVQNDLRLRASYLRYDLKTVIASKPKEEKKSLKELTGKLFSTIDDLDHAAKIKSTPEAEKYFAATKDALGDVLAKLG
tOE17 V-20F precursor protein, sequence (Q41048 whole entry): as above

Row | stoichiometry N (tOE17 per imported cpTatC) (imported cpTatC) | stoichiometry N (tOE17-GS3-His per cpTatC) [1] | Substance
1 | 0.92 | – | tOE17 V-20F precursor protein (from UniProt Q41048 1-217) (natural protein)
2 | – | 1.05 | tOE17-GS3-His (from UniProt Q41048 1-217) (natural protein)
